From patent US20240400614A1, “CLEAVABLE PEPTIDES AND METHODS OF USE THEREOF” (Bright Peak Therapeutics AG, priority 2023, published 2024)
Square brackets hold non-standard residues; d marks the D form. Ends that are not written are not given here. Tyr(3-NO2) = N[C@@H](Cc1ccc(O)c([N+](=O)[O-])c1)C(=O)O; Nle = CCCC[C@H](N)C(=O)O; 2Abz = Nc1ccccc1C(=O)O

Assays:
Format in all cases: biochemical
matriptase = target: T1, matriptase (Homo sapiens, UniProt Q9Y5Y6); assay: FRET peptide cleavage efficiency with matriptase; conditions: 200 uM linker, 1 ug/ml protease, 37° C., buffer B pH 9.0
T1 construct: purchased R&D Systems 3946-SEB
T1 sequence (Q9Y5Y6 615-855 limits assumed): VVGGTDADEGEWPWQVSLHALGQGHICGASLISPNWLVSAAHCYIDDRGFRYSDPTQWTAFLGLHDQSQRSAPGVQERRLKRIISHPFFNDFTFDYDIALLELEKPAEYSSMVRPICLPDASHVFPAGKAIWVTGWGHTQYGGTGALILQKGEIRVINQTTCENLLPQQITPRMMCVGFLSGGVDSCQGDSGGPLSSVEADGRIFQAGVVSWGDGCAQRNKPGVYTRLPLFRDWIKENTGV

MMP-2 = target: T2, MMP-2 (Homo sapiens, UniProt P08253); assay: FRET peptide cleavage efficiency with MMP-2; conditions: 200 uM linker, 1 ug/ml protease, 37° C., buffer C pH 7.5
T2 construct: purchased SIGMA PF023
T2 sequence (P08253 110-660): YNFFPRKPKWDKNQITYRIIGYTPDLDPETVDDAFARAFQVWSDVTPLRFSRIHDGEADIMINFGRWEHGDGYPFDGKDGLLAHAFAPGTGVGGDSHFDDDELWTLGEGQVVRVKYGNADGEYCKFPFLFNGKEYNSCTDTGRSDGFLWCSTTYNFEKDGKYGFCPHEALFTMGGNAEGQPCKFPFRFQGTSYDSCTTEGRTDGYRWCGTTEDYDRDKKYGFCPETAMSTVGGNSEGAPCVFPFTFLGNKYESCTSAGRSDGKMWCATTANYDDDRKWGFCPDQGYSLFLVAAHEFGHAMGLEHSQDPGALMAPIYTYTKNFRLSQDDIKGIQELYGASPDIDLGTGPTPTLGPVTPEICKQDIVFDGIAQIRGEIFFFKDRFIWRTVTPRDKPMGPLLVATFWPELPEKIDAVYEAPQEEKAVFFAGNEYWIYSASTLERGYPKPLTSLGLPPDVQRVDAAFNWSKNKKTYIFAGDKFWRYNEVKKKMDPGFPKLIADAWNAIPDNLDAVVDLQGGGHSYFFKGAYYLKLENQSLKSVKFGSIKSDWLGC

uPA = uPA (Homo sapiens, UniProt P00749); assay: FRET peptide cleavage efficiency with uPA; conditions: 200 uM linker, 1 ug/ml protease, 37° C., buffer A pH 8.5

Substance | % cleavage Matriptase t = 15 min (matriptase) | % cleavage Matriptase t = 60 min (matriptase) | % cleavage Matriptase t = 120 min (matriptase) | % cleavage MMP-2 t = 15 min (MMP-2) | % cleavage MMP-2 t = 60 min (MMP-2) | % cleavage MMP-2 t = 120 min (MMP-2) | % cleavage uPA t = 15 min (uPA) | % cleavage uPA t = 60 min (uPA) | % cleavage uPA t = 120 min (uPA)
SGRVLTLRKAALPLAM ([2Abz]SGRVLTLRKAALPLAM[Tyr(3-NO2)]-NH2) [LNK020] | 98% | 99% | 99% | 55% | 98% | 99% | 11% | 26% | 45%
KLFSSKQ ([2Abz]KLFSSKQ[Tyr(3-NO2)]-NH2) [LNK072] | – | – | – | 1% | 13% | 25% | – | – | –
SGRVLTLRKAGPAGLVG ([2Abz]SGRVLTLRKAGPAGLVG[Tyr(3-NO2)]-NH2) [LNK011] | 99% | 99% | 99% | 98% | 99% | 98% | 6% | 17% | 35%
SSRVFRKPANLAG ([2Abz]SSRVFRKPANLAG[Tyr(3-NO2)]-NH2) [LNK019] | 90% | 97% | 97% | 84% | 99% | 99% | 4% | 6% | 10%
RYGKSAPLGLAG ([2Abz]RYGKSAPLGLAG[Tyr(3-NO2)]-NH2) [LNK027] | 99% | 97% | 98% | 66% | 99% | 99% | 3% | 9% | 17%
RQRRS-Nle-PLGLAG ([2Abz]RQRRS[Nle]PLGLAG[Tyr(3-NO2)]-NH2) [LNK025] | 97% | 84% | 77% | 64% | 97% | 98% | 0% | 1% | 2%
SGRVLGPLNLSG ([2Abz]SGRVLGPLNLSG[Tyr(3-NO2)]-NH2) [LNK008] | 20% | 72% | 92% | 71% | 99% | 99% | 1% | 1% | 2%
KWGKSAPLGLAG ([2Abz]KWGKSAPLGLAG[Tyr(3-NO2)]-NH2) [LNK026] | 97% | 86% | 86% | 69% | 98% | 98% | 0% | 1% | 3%
PASNRRLPLGLAG ([2Abz]PASNRRLPLGLAG[Tyr(3-NO2)]-NH2) [LNK018] | 49% | 92% | 97% | 40% | 83% | 87% | 0% | 0% | 0%
SGRVLPLGMRA ([2Abz]SGRVLPLGMRA[Tyr(3-NO2)]-NH2) [LNK023] | 38% | 92% | 99% | 96% | 98% | 98% | 2% | 2% | 3%
SGRVLTLRKAGPANLVG ([2Abz]SGRVLTLRKAGPANLVG[Tyr(3-NO2)]-NH2) [LNK012] | 99% | 99% | 98% | 97% | 97% | 94% | 0% | 15% | 34%
SGRVLRKAGPAGLVG ([2Abz]SGRVLRKAGPAGLVG[Tyr(3-NO2)]-NH2) [LNK013] | 99% | 94% | 94% | 99% | 99% | 100% | 0% | 2% | 6%
RQRRSAAPLGLAG ([2Abz]RQRRSAAPLGLAG[Tyr(3-NO2)]-NH2) [LNK028] | 97% | 86% | 79% | 72% | 99% | 99% | 0% | 1% | 2%
SPLGLAGS ([2Abz]SPLGLAGS[Tyr(3-NO2)]-NH2) [LNK030] | 0% | 0% | 0% | 67% | 100% | 99% | 0% | 0% | 0%
SSRGPASNRRLPLGLAG ([2Abz]SSRGPASNRRLPLGLAG[Tyr(3-NO2)]-NH2) [LNK001] | 77% | 99% | 99% | 54% | 98% | 99% | 4% | 17% | 30%
